# Target: T1, full-length RADX, wild type, tagged with mCherry-FLAG or with GFP-HA (human, UniProt Q6NSI4 1-855)
# T1 construct: RADX (cxorf57), human, full length; Two differently tagged copies of the same protein, written as one molecule; The GFP-HA copy is the one captured on GFP beads in the tests with purified proteins; The mCherry-FLAG copy is the one fished out there, and is the bait of the FLAG co-IP from lysate; also called mCherry-FLAG-RADX; m-Cherry-FLAG-RADX; source: HEK293T, transfected, in lysate; HEK293T, …
# Assay: co-IP; purified mCherry-FLAG proteins mixed with purified GFP-HA-RADX and captured on GFP-trap magnetic agarose beads, 1 h at 4 °C; 50 mM Tris pH 7.5, 250 mM NaCl, 10% glycerol, 0.05% NP-40; immunoblot
# Conditions: both partners purified
row,binding result,Binder
1,binds,"mCherry-FLAG-RADX E842K (natural protein, human, UniProt Q6NSI4 1-855, looked up, RADX, human, full length with one point mutation; also called E842K RADX; pTM156; source: HEK293T, purified (anti-FLAG M2 beads, 3x FLAG peptide, Superdex 200)) MSGESGQPEAGPSHAGLDWPNPERNRAGVPGGVIRRAGSQGPRSWIQKVLEQIMDSPRQCVTPSEVVPVTVLAVQRYLLEDEPRDTVPKPPLYCYDVTISDGVYQEKCYLDPSLNSLVYQNILKVGIQMRISRVSCLYNEKRIGQGILCIDNVHCGETSDSISLETPFRNRAHQEKPERPLRGGKSHYLALWNNEDPYGDIWLTDKQPEEHNFSDTKIISLSHLEMTWTNRRNFPALLVRILHKSKLRYYGKPDKKMIEPYQTFLEVADSSGTVSVIMWNALCPEWYKSLRVGLVLLLQDYSVKKSYPFRIQPVPVDPQIKLISTMEICLNLRDPPTNIIIIPEKQVKPEWRLPKLNHRFTTRSELDDMPENCICDVIGLLVFVGRVQRSKKKENREDFWSYRWIHIADGTSEQPFIVELFSTSQPEIFENIYPMAYFVCTQLKVVRNDNQVPKLLYLTTTNESGVFITGHRGQPYTYDAKVKNFIQWIRTKSDSGEQKNMVIGGYYPYPPVPETFSKYSSSIKVESLLTAISEVRKEIEDLQYREQKRIAIQGIITAIKYIPHSSATESASASETLRNANRPSTSQAARVEIQERNGKRHQDDEPVNSQYFQTTSTNLSLSNKIRILQGPHANPVAVPQPGASVQTKGIKPGMPSIFNRRANINANLQGKARKTISDRWESQLWREKKFGLIDHLHYSRVYPESIPRKFMFEHRKFLSDQYNSQPAKYVPPEGRPPKLDDFKSARSLGHFEVTILGLNHEIAIDVAFLPMYCPEDIRTSQIDTLLTSMNYSCAYPQDTTGNDRLPGPRAVAGDIIKAATELDRVHIVGILDICNLGNNKVKVYLHKIYSPENTS"
2,binds,"mCherry-FLAG-RADX KIY to DIA (residues 847–849) (natural protein, human, UniProt Q6NSI4 1-855, looked up, also called pTM114; source: HEK293T, purified (anti-FLAG M2 beads, 3x FLAG peptide, Superdex 200)) MSGESGQPEAGPSHAGLDWPNPERNRAGVPGGVIRRAGSQGPRSWIQKVLEQIMDSPRQCVTPSEVVPVTVLAVQRYLLEDEPRDTVPKPPLYCYDVTISDGVYQEKCYLDPSLNSLVYQNILKVGIQMRISRVSCLYNEKRIGQGILCIDNVHCGETSDSISLETPFRNRAHQEKPERPLRGGKSHYLALWNNEDPYGDIWLTDKQPEEHNFSDTKIISLSHLEMTWTNRRNFPALLVRILHKSKLRYYGKPDKKMIEPYQTFLEVADSSGTVSVIMWNALCPEWYKSLRVGLVLLLQDYSVKKSYPFRIQPVPVDPQIKLISTMEICLNLRDPPTNIIIIPEKQVKPEWRLPKLNHRFTTRSELDDMPENCICDVIGLLVFVGRVQRSKKKENREDFWSYRWIHIADGTSEQPFIVELFSTSQPEIFENIYPMAYFVCTQLKVVRNDNQVPKLLYLTTTNESGVFITGHRGQPYTYDAKVKNFIQWIRTKSDSGEQKNMVIGGYYPYPPVPETFSKYSSSIKVESLLTAISEVRKEIEDLQYREQKRIAIQGIITAIKYIPHSSATESASASETLRNANRPSTSQAARVEIQERNGKRHQDDEPVNSQYFQTTSTNLSLSNKIRILQGPHANPVAVPQPGASVQTKGIKPGMPSIFNRRANINANLQGKARKTISDRWESQLWREKKFGLIDHLHYSRVYPESIPRKFMFEHRKFLSDQYNSQPAKYVPPEGRPPKLDDFKSARSLGHFEVTILGLNHEIAIDVAFLPMYCPEDIRTSQIDTLLTSMNYSCAYPQDTTGNDRLPGPRAVAGDIIKAATELDRVHIVGILDICNLGNNKVEVYLHDIASPENTS"
3,binds,"mCherry-FLAG-RADX K847D (natural protein, human, UniProt Q6NSI4 1-855, looked up, RADX, human, full length with one point mutation; also called K847D RADX; pTM157; source: HEK293T, purified (anti-FLAG M2 beads, 3x FLAG peptide, Superdex 200)) MSGESGQPEAGPSHAGLDWPNPERNRAGVPGGVIRRAGSQGPRSWIQKVLEQIMDSPRQCVTPSEVVPVTVLAVQRYLLEDEPRDTVPKPPLYCYDVTISDGVYQEKCYLDPSLNSLVYQNILKVGIQMRISRVSCLYNEKRIGQGILCIDNVHCGETSDSISLETPFRNRAHQEKPERPLRGGKSHYLALWNNEDPYGDIWLTDKQPEEHNFSDTKIISLSHLEMTWTNRRNFPALLVRILHKSKLRYYGKPDKKMIEPYQTFLEVADSSGTVSVIMWNALCPEWYKSLRVGLVLLLQDYSVKKSYPFRIQPVPVDPQIKLISTMEICLNLRDPPTNIIIIPEKQVKPEWRLPKLNHRFTTRSELDDMPENCICDVIGLLVFVGRVQRSKKKENREDFWSYRWIHIADGTSEQPFIVELFSTSQPEIFENIYPMAYFVCTQLKVVRNDNQVPKLLYLTTTNESGVFITGHRGQPYTYDAKVKNFIQWIRTKSDSGEQKNMVIGGYYPYPPVPETFSKYSSSIKVESLLTAISEVRKEIEDLQYREQKRIAIQGIITAIKYIPHSSATESASASETLRNANRPSTSQAARVEIQERNGKRHQDDEPVNSQYFQTTSTNLSLSNKIRILQGPHANPVAVPQPGASVQTKGIKPGMPSIFNRRANINANLQGKARKTISDRWESQLWREKKFGLIDHLHYSRVYPESIPRKFMFEHRKFLSDQYNSQPAKYVPPEGRPPKLDDFKSARSLGHFEVTILGLNHEIAIDVAFLPMYCPEDIRTSQIDTLLTSMNYSCAYPQDTTGNDRLPGPRAVAGDIIKAATELDRVHIVGILDICNLGNNKVEVYLHDIYSPENTS"
4,binds,"mCherry-FLAG-RADX K840D (natural protein, human, UniProt Q6NSI4 1-855, looked up, RADX, human, full length with one point mutation; also called pTM155; source: HEK293T, purified (anti-FLAG M2 beads, 3x FLAG peptide, Superdex 200)) MSGESGQPEAGPSHAGLDWPNPERNRAGVPGGVIRRAGSQGPRSWIQKVLEQIMDSPRQCVTPSEVVPVTVLAVQRYLLEDEPRDTVPKPPLYCYDVTISDGVYQEKCYLDPSLNSLVYQNILKVGIQMRISRVSCLYNEKRIGQGILCIDNVHCGETSDSISLETPFRNRAHQEKPERPLRGGKSHYLALWNNEDPYGDIWLTDKQPEEHNFSDTKIISLSHLEMTWTNRRNFPALLVRILHKSKLRYYGKPDKKMIEPYQTFLEVADSSGTVSVIMWNALCPEWYKSLRVGLVLLLQDYSVKKSYPFRIQPVPVDPQIKLISTMEICLNLRDPPTNIIIIPEKQVKPEWRLPKLNHRFTTRSELDDMPENCICDVIGLLVFVGRVQRSKKKENREDFWSYRWIHIADGTSEQPFIVELFSTSQPEIFENIYPMAYFVCTQLKVVRNDNQVPKLLYLTTTNESGVFITGHRGQPYTYDAKVKNFIQWIRTKSDSGEQKNMVIGGYYPYPPVPETFSKYSSSIKVESLLTAISEVRKEIEDLQYREQKRIAIQGIITAIKYIPHSSATESASASETLRNANRPSTSQAARVEIQERNGKRHQDDEPVNSQYFQTTSTNLSLSNKIRILQGPHANPVAVPQPGASVQTKGIKPGMPSIFNRRANINANLQGKARKTISDRWESQLWREKKFGLIDHLHYSRVYPESIPRKFMFEHRKFLSDQYNSQPAKYVPPEGRPPKLDDFKSARSLGHFEVTILGLNHEIAIDVAFLPMYCPEDIRTSQIDTLLTSMNYSCAYPQDTTGNDRLPGPRAVAGDIIKAATELDRVHIVGILDICNLGNNDVEVYLHKIYSPENTS"
5,binds,"mCherry-FLAG-RADX NHEI to AAAA (residues 759–762) (natural protein, human, UniProt Q6NSI4 1-855, looked up, also called pTM109; source: HEK293T, purified (anti-FLAG M2 beads, 3x FLAG peptide, Superdex 200)) MSGESGQPEAGPSHAGLDWPNPERNRAGVPGGVIRRAGSQGPRSWIQKVLEQIMDSPRQCVTPSEVVPVTVLAVQRYLLEDEPRDTVPKPPLYCYDVTISDGVYQEKCYLDPSLNSLVYQNILKVGIQMRISRVSCLYNEKRIGQGILCIDNVHCGETSDSISLETPFRNRAHQEKPERPLRGGKSHYLALWNNEDPYGDIWLTDKQPEEHNFSDTKIISLSHLEMTWTNRRNFPALLVRILHKSKLRYYGKPDKKMIEPYQTFLEVADSSGTVSVIMWNALCPEWYKSLRVGLVLLLQDYSVKKSYPFRIQPVPVDPQIKLISTMEICLNLRDPPTNIIIIPEKQVKPEWRLPKLNHRFTTRSELDDMPENCICDVIGLLVFVGRVQRSKKKENREDFWSYRWIHIADGTSEQPFIVELFSTSQPEIFENIYPMAYFVCTQLKVVRNDNQVPKLLYLTTTNESGVFITGHRGQPYTYDAKVKNFIQWIRTKSDSGEQKNMVIGGYYPYPPVPETFSKYSSSIKVESLLTAISEVRKEIEDLQYREQKRIAIQGIITAIKYIPHSSATESASASETLRNANRPSTSQAARVEIQERNGKRHQDDEPVNSQYFQTTSTNLSLSNKIRILQGPHANPVAVPQPGASVQTKGIKPGMPSIFNRRANINANLQGKARKTISDRWESQLWREKKFGLIDHLHYSRVYPESIPRKFMFEHRKFLSDQYNSQPAKYVPPEGRPPKLDDFKSARSLGHFEVTILGLAAAAAIDVAFLPMYCPEDIRTSQIDTLLTSMNYSCAYPQDTTGNDRLPGPRAVAGDIIKAATELDRVHIVGILDICNLGNNKVEVYLHKIYSPENTS"
6,binds,"mCherry-FLAG-RADX KVEV to DVKV (residues 840–843) (natural protein, human, UniProt Q6NSI4 1-855, looked up, The results print residues 840 to 844, the methods 840–843; also called pTM113; source: HEK293T, purified (anti-FLAG M2 beads, 3x FLAG peptide, Superdex 200)) MSGESGQPEAGPSHAGLDWPNPERNRAGVPGGVIRRAGSQGPRSWIQKVLEQIMDSPRQCVTPSEVVPVTVLAVQRYLLEDEPRDTVPKPPLYCYDVTISDGVYQEKCYLDPSLNSLVYQNILKVGIQMRISRVSCLYNEKRIGQGILCIDNVHCGETSDSISLETPFRNRAHQEKPERPLRGGKSHYLALWNNEDPYGDIWLTDKQPEEHNFSDTKIISLSHLEMTWTNRRNFPALLVRILHKSKLRYYGKPDKKMIEPYQTFLEVADSSGTVSVIMWNALCPEWYKSLRVGLVLLLQDYSVKKSYPFRIQPVPVDPQIKLISTMEICLNLRDPPTNIIIIPEKQVKPEWRLPKLNHRFTTRSELDDMPENCICDVIGLLVFVGRVQRSKKKENREDFWSYRWIHIADGTSEQPFIVELFSTSQPEIFENIYPMAYFVCTQLKVVRNDNQVPKLLYLTTTNESGVFITGHRGQPYTYDAKVKNFIQWIRTKSDSGEQKNMVIGGYYPYPPVPETFSKYSSSIKVESLLTAISEVRKEIEDLQYREQKRIAIQGIITAIKYIPHSSATESASASETLRNANRPSTSQAARVEIQERNGKRHQDDEPVNSQYFQTTSTNLSLSNKIRILQGPHANPVAVPQPGASVQTKGIKPGMPSIFNRRANINANLQGKARKTISDRWESQLWREKKFGLIDHLHYSRVYPESIPRKFMFEHRKFLSDQYNSQPAKYVPPEGRPPKLDDFKSARSLGHFEVTILGLNHEIAIDVAFLPMYCPEDIRTSQIDTLLTSMNYSCAYPQDTTGNDRLPGPRAVAGDIIKAATELDRVHIVGILDICNLGNNDVKVYLHKIYSPENTS"

# — paper PMC8902620, “Oligomerization of DNA replication regulatory protein RADX is essential to maintain replication fork stability” (The Journal of Biological Chemistry, 2022)
